Measurements: paper PMC11342335, “An anti-sortilin affibody-peptide fusion inhibits sortilin-mediated progranulin degradation” (Frontiers in Immunology, 2024)

Experiments:
[1] = biological target: T1, sortilin on the surface of U-251 and PC-3 cells (human (endogenous in U-251 and PC-3), UniProt Q99523 78-831); assay: cell-based or functional assay
T1 sequence (looked up): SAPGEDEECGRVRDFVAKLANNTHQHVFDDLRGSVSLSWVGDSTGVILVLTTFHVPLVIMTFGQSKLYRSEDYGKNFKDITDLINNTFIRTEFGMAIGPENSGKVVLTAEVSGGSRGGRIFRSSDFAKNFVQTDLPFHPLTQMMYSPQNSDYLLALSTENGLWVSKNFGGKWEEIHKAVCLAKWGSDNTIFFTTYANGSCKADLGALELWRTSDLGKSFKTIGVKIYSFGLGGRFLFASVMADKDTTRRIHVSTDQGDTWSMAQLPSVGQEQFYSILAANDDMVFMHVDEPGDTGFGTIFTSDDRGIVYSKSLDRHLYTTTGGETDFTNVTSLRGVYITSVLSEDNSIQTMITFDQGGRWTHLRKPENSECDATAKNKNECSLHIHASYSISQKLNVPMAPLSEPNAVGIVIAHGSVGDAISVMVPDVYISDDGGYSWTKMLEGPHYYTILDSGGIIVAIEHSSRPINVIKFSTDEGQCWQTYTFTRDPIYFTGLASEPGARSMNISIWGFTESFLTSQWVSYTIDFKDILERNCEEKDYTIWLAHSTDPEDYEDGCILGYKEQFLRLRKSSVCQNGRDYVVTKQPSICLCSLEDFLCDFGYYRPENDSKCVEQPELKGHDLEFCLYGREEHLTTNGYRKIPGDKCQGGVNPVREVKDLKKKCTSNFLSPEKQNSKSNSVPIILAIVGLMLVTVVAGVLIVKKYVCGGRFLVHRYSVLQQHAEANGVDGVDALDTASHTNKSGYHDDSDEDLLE

[2] = biological target: T2, human sortilin (R&D Systems, 3154-ST) (human, UniProt Q99523 78-755); assay: SPR; Biacore 8K, affinity determination of second-generation constructs; 30-100 RU of ABD035-containing constructs captured on immobilised HSA (CM5); 1-200 nM human sortilin injected 180 s at 30 µl/min, 25°C, PBST; 60 min dissociation; 1:1 Langmuir fit; apparent constants; n=3 technical replicates; conditions: both partners purified
T2 construct: sortilin, human, recombinant protein bought from R&D Systems (3154-ST); also called hSort; SORT1; source: bought: R&D Systems (3154-ST)
T2 sequence (looked up): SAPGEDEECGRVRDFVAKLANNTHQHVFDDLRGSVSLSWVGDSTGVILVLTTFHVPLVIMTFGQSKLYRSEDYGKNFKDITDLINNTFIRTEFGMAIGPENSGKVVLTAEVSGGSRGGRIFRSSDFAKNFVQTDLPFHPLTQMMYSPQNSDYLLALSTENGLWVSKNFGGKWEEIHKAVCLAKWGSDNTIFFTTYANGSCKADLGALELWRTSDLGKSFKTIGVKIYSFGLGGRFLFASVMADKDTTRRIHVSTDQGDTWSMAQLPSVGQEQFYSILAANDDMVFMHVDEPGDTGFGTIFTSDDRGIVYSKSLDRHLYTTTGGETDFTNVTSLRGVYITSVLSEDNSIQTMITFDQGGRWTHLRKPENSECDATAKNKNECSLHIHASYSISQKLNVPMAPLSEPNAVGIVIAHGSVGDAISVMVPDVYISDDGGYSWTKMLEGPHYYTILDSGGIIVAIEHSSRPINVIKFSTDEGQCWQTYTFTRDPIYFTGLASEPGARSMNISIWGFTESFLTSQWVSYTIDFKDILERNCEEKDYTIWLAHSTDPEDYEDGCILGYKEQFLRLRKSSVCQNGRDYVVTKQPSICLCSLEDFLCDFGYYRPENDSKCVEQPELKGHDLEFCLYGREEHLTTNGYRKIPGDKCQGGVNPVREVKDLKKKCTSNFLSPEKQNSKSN

B1: ABD-PGRNC21* (His6-ABD035-PGRNC21*) (peptide, UniProt P28799 573-593, looked up)
chain: LRREAPRWDAPLRDPGLRQLL
notes: progranulin (PGRN), human, the 21 C-terminal residues L573-L593 (PGRNC21) with A588G (PGRNC21*); numbers count from the start codon; also called the PGRN C-terminus; PGRNC alone; source: E. coli BL21 Star, purified (IMAC, HisPur Cobalt); not shown: ABD035, N-terminal, kept
Which results are given for B1?
PGRN clearance assay: fold increase of extracellular PGRN (ELISA) against untreated U-251 cells after 72 h, at the highest tested concentration (500 nM); no plateau, no EC50 [1]: ≤ 1.44 fold; Kd [2]: 15.9 nM; koff [2]: 0.00337 s⁻¹; kon [2]: 212000 M⁻¹ s⁻¹
